Measurements: patent US20250138018A1 (NEXTPOINT THERAPEUTICS, published 2025)

B1: TK20-17C7-01 anti-TMIGD2/anti-CD20 bispecific antibody (bispecific antibody, human IgG1, kappa, L234A L235A)
heavy: not shown
light: QIVLSQSPAILSASPGEKVTMTCRASSSVSYIHWFQQKPGSSPKPWIYATSNLASGVPVRFSGSGSGTSYSLTISRVEAEDAATYYCQQWTSNPPTFGGGTKLEIKRTVAAPSVFIFPPSDEQLKSGTASVVCLLNNFYPREAKVQWKVDNALQSGNSQESVTEQDSKDSTYSLSSTLTLSKADYEKHKVYACEVTHQGLSSPVTKSFNRGEC
notes: Tetravalent Morrison format; copies: 2 + 2
B2: TK20-29F8-16 anti-TMIGD2/anti-CD20 bispecific antibody (bispecific antibody, human IgG1, kappa, L234A L235A)
heavy: not shown
light: QIVLSQSPAILSASPGEKVTMTCRASSSVSYIHWFQQKPGSSPKPWIYATSNLASGVPVRFSGSGSGTSYSLTISRVEAEDAATYYCQQWTSNPPTFGGGTKLEIKRTVAAPSVFIFPPSDEQLKSGTASVVCLLNNFYPREAKVQWKVDNALQSGNSQESVTEQDSKDSTYSLSSTLTLSKADYEKHKVYACEVTHQGLSSPVTKSFNRGEC
notes: as for B1
B3: TK20-39C9-2134 anti-TMIGD2/anti-CD20 bispecific antibody (bispecific antibody, human IgG1, kappa, L234A L235A)
heavy: not shown
light: QIVLSQSPAILSASPGEKVTMTCRASSSVSYIHWFQQKPGSSPKPWIYATSNLASGVPVRFSGSGSGTSYSLTISRVEAEDAATYYCQQWTSNPPTFGGGTKLEIKRTVAAPSVFIFPPSDEQLKSGTASVVCLLNNFYPREAKVQWKVDNALQSGNSQESVTEQDSKDSTYSLSSTLTLSKADYEKHKVYACEVTHQGLSSPVTKSFNRGEC
notes: as for B1

Biological target: T1, CD20 on CD20+ Raji cells (UniProt P11836 1-297, limits assumed)
T1 construct: whole, on cells; Endogenous CD20 of the Raji cell line; also called TAA (CD20)
T1 sequence (looked up): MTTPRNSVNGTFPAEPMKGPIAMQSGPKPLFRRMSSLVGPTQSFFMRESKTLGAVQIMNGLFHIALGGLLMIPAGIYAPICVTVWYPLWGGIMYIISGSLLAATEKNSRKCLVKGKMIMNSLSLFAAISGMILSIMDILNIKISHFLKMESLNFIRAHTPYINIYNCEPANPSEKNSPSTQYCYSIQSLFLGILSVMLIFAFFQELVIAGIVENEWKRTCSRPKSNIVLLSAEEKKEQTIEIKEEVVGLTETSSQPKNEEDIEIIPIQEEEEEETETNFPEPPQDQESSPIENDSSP
Assay: Raji co-culture with TMIGD2-Jurkat NFAT reporter cells; binding told in words, not measured directly
Experimental: Raji cells (2×10⁴) were plated in a 96-well white flat bottom tissue culture plate with anti-TMIGD2/anti-CD20 bispecific antibodies (TK20-17C7-01, TK20-29F8-16, and TK20-39C9-2134) in 50 μl R10 medium (RPMI 1640+10% Fetal bovine serum) at 3-fold serial dilutions ranging from 10-0.5 μg/mL. An anti-CD20 (IgG1 LALA) was included as a negative control. The cells were incubated at 37° C. for 30 minutes. TMIGD2-Jurkat NFAT reporter cells (4×10⁴) were added to each well with 1 μg/mL anti-CD3 antibody (OKT3) in 50 μl R10 medium. Cells were incubated at 37° C. for 6 hours and 100 ul of Bio-Glo™ luciferase assay reagent (Promega®, G7940) was added to each well. Luciferase activity was measured on a plate reader.

Binding result, binds:
B1
B2
B3
